Laboratory results taken from patent US20210355207A1 (ACADEMIA SINICA, published 2021).

Assays:
[1] = target: T1, human advillin-flag (hAvil-flag), exogenously expressed in 293 cells (human, UniProt O75366 1-819); experiment: western blot of lysates of 293 cells transfected with hAvil-flag or vector control
T1 construct: also called exogenous expression of human advillin clone; expression plasmid of human advillin; not shown: flag tag from the p3xFLAG-CMV14 vector
T1 sequence (looked up): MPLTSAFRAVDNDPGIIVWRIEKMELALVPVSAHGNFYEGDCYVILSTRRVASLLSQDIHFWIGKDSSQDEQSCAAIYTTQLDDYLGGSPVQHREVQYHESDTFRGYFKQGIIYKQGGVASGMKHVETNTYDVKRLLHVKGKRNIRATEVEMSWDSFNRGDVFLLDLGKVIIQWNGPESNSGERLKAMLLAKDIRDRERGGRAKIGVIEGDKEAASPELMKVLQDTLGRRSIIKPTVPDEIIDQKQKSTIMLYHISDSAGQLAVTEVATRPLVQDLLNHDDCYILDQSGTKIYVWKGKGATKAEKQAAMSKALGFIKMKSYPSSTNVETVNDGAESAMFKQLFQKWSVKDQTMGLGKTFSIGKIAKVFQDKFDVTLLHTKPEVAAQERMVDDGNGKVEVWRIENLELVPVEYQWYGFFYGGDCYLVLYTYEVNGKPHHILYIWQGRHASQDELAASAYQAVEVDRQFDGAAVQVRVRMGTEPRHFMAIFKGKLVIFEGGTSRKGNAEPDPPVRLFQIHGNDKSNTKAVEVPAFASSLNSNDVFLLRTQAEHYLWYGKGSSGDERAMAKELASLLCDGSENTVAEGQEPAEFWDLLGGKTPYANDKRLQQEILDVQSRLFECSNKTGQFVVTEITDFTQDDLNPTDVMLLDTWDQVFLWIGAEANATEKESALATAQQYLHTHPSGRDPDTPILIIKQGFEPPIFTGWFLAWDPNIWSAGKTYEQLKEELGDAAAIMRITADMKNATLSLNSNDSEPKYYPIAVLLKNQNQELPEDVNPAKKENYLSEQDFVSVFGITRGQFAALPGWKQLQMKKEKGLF
Source text: FIG. 6 The monoclonal antibody of human advillin specifically recognized exogenous expression of human advillin in 293 cells. Human advillin clone was tagged with flag, and the construct of human advillin-flag (hAvil-flag) or vector control (flag) were transfected into 293 cells. The lysates were detected with the monoclonal antibody of human advillin and flag antibody respectively. The molecular weight of human advillin is predicted as 92 KDa and the detected signals were corresponded to predicted size of hAvil-flag around 100 KDa. The top signal is supposed as aggregated forms as detected in the flag-antibody recognized signal.
Primary antibodies used in western blot were rabbit polyclonal anti-mouse advillin (1 μg/ml), mouse monoclonal anti-human advillin, and rabbit anti-albumin (1:1000, both GeneTex, San Antonio, Tex., USA). […] Cerebrospinal fluid (CSF) samples or protein from cell lysates separated by SDS-PAGE were transferred onto PVDF membranes by using a Mini Trans-Blot Electrophoretic Transfer Cell (Bio-rad, CA, USA). […] Enhanced chemiluminescence (ECL) involved the Immobilon ECL Kit (Millipore, MA, USA) and signals were detected by using the BioSpectrum Auto Imaging System (UVP, CA, USA). […]

[2] = target: T2, synthetic peptide LKNQNQELPEDVNPAKKENYLSEQD (SEQ ID NO: 2); experiment: ELISA screen of hybridoma clones on peptide
T2 construct: Used to screen the hybridoma clones by ELISA; also called another synthetic peptide
T2 peptide: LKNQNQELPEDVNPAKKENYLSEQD

binding result [1]: binds | binding result [2]: binds
B1: monoclonal antibody of human advillin hAvil, produced by the hybridoma YCC-S1 (antibody, V domains shown)
VH: EVKLEESGGGLVQPGGSLKLSCVASGFAFSNSWMSWVRQSPEKGLEWVAEIRLKSDNYASHYAESVKGRFTISRDDSKSRLYLQMNALRAEDTGIYYCSDGTWFTYWGQGTLVTVST
VL: DIVMSQSPSSLAVSVGEKVTMNCKSSQSLLYRANQKNYLAWYQQKPGQSPKLLIYWASTRESGVPDRFTGSGSGTDFTLTISSVKAEDLAVYYCQQYYSHPFTFGSGTKLKIK
notes: also called mouse monoclonal anti-human advillin; anti-advillin antibody
